Publication PMC3629964

Target: NH2-terminal-PEGylated HZ-TRAIL monomer (human) (UniProt P50591)
Test: SEC + other: quantitative Western blot

stoichiometry N: 2
Substance: 6xHis-ILZ-hTRAIL(114-281) (from UniProt P50591 114-281) (ligand)
